Reference: PMC4407695 (Journal of molecular biology, 2014)

T1: wild-type full-length Merlin(wt) (human, UniProt P35240 1-595)
T1 sequence (looked up): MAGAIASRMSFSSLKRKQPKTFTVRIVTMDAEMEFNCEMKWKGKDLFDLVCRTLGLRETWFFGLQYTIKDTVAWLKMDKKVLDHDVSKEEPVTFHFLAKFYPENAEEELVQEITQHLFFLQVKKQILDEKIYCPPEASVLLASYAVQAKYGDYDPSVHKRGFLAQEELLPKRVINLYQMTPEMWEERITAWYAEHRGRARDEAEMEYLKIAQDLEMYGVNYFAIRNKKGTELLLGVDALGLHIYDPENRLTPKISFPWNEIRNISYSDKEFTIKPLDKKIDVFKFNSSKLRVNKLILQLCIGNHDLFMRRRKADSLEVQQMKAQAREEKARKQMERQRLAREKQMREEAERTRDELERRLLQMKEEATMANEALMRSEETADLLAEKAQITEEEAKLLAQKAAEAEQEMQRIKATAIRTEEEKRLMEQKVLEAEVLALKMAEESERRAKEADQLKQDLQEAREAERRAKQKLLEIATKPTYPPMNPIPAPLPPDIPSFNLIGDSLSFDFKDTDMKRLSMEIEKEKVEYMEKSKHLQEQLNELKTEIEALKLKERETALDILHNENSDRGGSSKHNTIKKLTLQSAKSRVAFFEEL

T2: Merlin(S518D) (human, UniProt P35240 1-595, S518D)
T2 sequence (looked up): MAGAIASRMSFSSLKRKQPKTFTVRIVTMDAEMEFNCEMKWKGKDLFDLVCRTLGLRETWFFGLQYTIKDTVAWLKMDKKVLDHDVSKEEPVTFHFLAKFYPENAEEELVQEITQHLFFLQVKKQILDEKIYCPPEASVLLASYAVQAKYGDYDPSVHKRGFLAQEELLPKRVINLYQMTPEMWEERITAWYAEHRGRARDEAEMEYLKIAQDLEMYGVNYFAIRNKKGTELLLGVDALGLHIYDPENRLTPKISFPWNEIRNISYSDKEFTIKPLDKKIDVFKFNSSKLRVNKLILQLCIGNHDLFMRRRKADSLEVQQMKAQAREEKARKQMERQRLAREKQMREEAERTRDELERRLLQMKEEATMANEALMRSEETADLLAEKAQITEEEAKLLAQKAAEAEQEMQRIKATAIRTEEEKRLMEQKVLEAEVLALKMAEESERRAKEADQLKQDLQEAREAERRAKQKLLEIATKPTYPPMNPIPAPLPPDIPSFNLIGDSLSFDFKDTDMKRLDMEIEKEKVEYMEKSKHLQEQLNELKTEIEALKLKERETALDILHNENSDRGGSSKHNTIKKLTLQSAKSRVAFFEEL

B1: FERM domain of Merlin (domain or fragment, human, UniProt P35240 22-311, looked up)
chain: FTVRIVTMDAEMEFNCEMKWKGKDLFDLVCRTLGLRETWFFGLQYTIKDTVAWLKMDKKVLDHDVSKEEPVTFHFLAKFYPENAEEELVQEITQHLFFLQVKKQILDEKIYCPPEASVLLASYAVQAKYGDYDPSVHKRGFLAQEELLPKRVINLYQMTPEMWEERITAWYAEHRGRARDEAEMEYLKIAQDLEMYGVNYFAIRNKKGTELLLGVDALGLHIYDPENRLTPKISFPWNEIRNISYSDKEFTIKPLDKKIDVFKFNSSKLRVNKLILQLCIGNHDLFMRRR
B2: NHERF1 (natural protein, UniProt O14745 1-358, looked up)
chain: MSADAAAGAPLPRLCCLEKGPNGYGFHLHGEKGKLGQYIRLVEPGSPAEKAGLLAGDRLVEVNGENVEKETHQQVVSRIRAALNAVRLLVVDPETDEQLQKLGVQVREELLRAQEAPGQAEPPAAAEVQGAGNENEPREADKSHPEQRELRPRLCTMKKGPSGYGFNLHSDKSKPGQFIRSVDPDSPAEASGLRAQDRIVEVNGVCMEGKQHGDVVSAIRAGGDETKLLVVDRETDEFFKKCRVIPSQEHLNGPLPVPFTNGEIQKENSREALAEAALESPRPALVRSASSDTSEELNSQDSPPKQDSTAPSSTSSSDPILDFNISLAMAKERAHQKRSSKRAPQMDWSKKNELFSNL

Tests used:
NHERF1 [1] = target: B2; assay: ITC
NHERF1 [2] = target: B2; assay: SPR
FERM domain of Ezrin = FERM domain of Ezrin (UniProt P15311 2-296); assay: ITC
FERM domain of Merlin = target: B1; assay: ITC
[3] = target: T1, wild-type full-length Merlin(wt); assay: ITC
Merlin(S518D) [4] = target: T2, Merlin(S518D); assay: ITC
[5] = target: T1, wild-type full-length Merlin(wt); assay: SPR
Merlin(S518D) [6] = target: T2, Merlin(S518D); assay: SPR

Chain of FERM domain of Ezrin (P15311 2-296): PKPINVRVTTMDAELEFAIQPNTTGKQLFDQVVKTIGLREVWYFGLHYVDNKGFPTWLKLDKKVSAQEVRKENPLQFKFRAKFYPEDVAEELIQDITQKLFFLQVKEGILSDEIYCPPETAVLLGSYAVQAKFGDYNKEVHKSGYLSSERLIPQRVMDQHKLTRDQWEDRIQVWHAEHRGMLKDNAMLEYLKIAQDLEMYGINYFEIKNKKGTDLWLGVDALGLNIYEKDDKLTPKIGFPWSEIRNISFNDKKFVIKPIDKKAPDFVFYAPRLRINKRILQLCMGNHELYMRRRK

| Kd (NHERF1 [1]) [nM] | Kd (NHERF1 [2]) [nM] | stoichiometry N (FERM domain of Ezrin) | stoichiometry N (FERM domain of Merlin) | Kd [3] [nM] | stoichiometry N [3] | Kd (Merlin(S518D) [4]) [nM] | stoichiometry N (Merlin(S518D) [4]) | Kd [5] [nM] | Kd (Merlin(S518D) [6]) [nM] | Binder |
| --- | --- | --- | --- | --- | --- | --- | --- | --- | --- | --- |
| 649 ± 18 | 459 ± 38 |  |  |  |  |  |  |  |  | B1 |
|  |  | 1.06 | 0.93 | 855 ± 160 | 0.37 | 1570 ± 322 | 0.39 | 956 ± 70 | 1240 ± 220 | B2 |
